Test results reported in publication PMC9051087.
Where “and” joins values, the source holds several entries; their conditions need not be identical. Identical values can stand only once.

How the values were obtained:
[1] = target: PbHARP A118E/A121E mutant (Planctomycetes bacterium GWF2_40_8); assay: SEC; PbHARP wild type and mutants; Superdex 200 Increase 10/300 GL, 20 mM Tris-HCl pH 8.0, 300–500 mM salt for the wild type (it precipitates at lower salt); 300 ug protein, 0.4 mL/min
[2] = target: Thermococcus celer HARP (Thermococcus celer); assay: SEC; TcHARP at higher salt (200–500 mM); Superdex 200 Increase 10/300 GL, 20 mM Tris-HCl pH 8.0
[3] = target: Planctomycetes bacterium HARP (homolog of Aquifex RNase P) (Planctomycetes bacterium GWF2_40_8); assay: cross-linking; BS3 (0, 0.01, 0.03 mM), 25 °C 1 h, 37.6 uM PbHARP without or with 45.1 uM His-7bp pre-tRNA and 10 mM CaCl2; 20 mM HEPES pH 7.9, 500 mM NaCl; SDS-PAGE
[4] = target: Planctomycetes bacterium HARP (homolog of Aquifex RNase P) (Planctomycetes bacterium GWF2_40_8); assay: SEC; PbHARP wild type and mutants; Superdex 200 Increase 10/300 GL, 20 mM Tris-HCl pH 8.0, 300–500 mM salt for the wild type (it precipitates at lower salt); 300 ug protein, 0.4 mL/min

PbHARP A118E/A121E mutant (enzyme) gave a stoichiometry N [1] of 2.

Substance Thermococcus celer HARP (enzyme) has a stoichiometry N [2] of 2.

“Planctomycetes bacterium HARP (homolog of Aquifex RNase P) (enzyme)” was tested, and the stoichiometry N [3] was 2 and 4 and the stoichiometry N [4] was 2.
